Sequences and labels used below:
B1: Dom34 (Pelota of Saccharomyces cerevisiae) (natural protein, S. cerevisiae, UniProt P33309 1-386, looked up)
chain: MKVISLKKDSFNKGGAVITLLPEDKEDLFTVYQIVDKDDELIFKKKFTSKLDEAGKKKSTDLVKLKIKVISEDFDMKDEYLKYKGVTVTDESGASNVDIPVGKYLSFTLDYVYPFTIIKQNFNKFMQKLLNEACNIEYKSDTAAVVLQEGIAHVCLVTSSSTILKQKIEYSMPKKKRTTDVLKFDEKTEKFYKAIYSAMKKDLNFDKLKTIILCSPGFYAKILMDKIFQYAEEEHNKKILDNKGMFFIAHCSTGYLQGINEVLKNPLYASKLQDTKYSKEIMVMDEFLLHLNKDDDKAWYGEKEVVKAAEYGAISYLLLTDKVLHSDNIAQREEYLKLMDSVESNGGKALVLSTLHSLGEELDQLTGIACILKYPLPDLDEDDGEE
B2: ribosomal protein rpS30 (yeast 40S subunit) (natural protein, UniProt P0CX33 1-63, looked up)
chain: MAKVHGSLARAGKVKSQTPKVEKTEKPKKPKGRAYKRLLYTRRFVNVTLVNGKRRMNPGPSVQ
B3: ribosomal protein rpP0 (yeast 60S subunit) (natural protein, UniProt P05317 1-312, looked up)
chain: MGGIREKKAEYFAKLREYLEEYKSLFVVGVDNVSSQQMHEVRKELRGRAVVLMGKNTMVRRAIRGFLSDLPDFEKLLPFVKGNVGFVFTNEPLTEIKNVIVSNRVAAPARAGAVAPEDIWVRAVNTGMEPGKTSFFQALGVPTKIARGTIEIVSDVKVVDAGNKVGQSEASLLNLLNISPFTFGLTVVQVYDNGQVFPSSILDITDEELVSHFVSAVSTIASISLAIGYPTLPSVGHTLINNYKDLLAVAIAASYHYPEIEDLVDRIENPEKYAAAAPAATSAASGDAAPAEEAAAEEEEESDDDMGFGLFD

For assay [1], the target named is Rli1 (ABCE1 of Saccharomyces cerevisiae) (S. cerevisiae, UniProt Q03195 1-608). Briefly: cryo-EM structure.
The target of assay [2] is B1. The assay is described as follows: cryo-EM structure.

Chain of Rli1 (ABCE1 of Saccharomyces cerevisiae) (Q03195 whole entry): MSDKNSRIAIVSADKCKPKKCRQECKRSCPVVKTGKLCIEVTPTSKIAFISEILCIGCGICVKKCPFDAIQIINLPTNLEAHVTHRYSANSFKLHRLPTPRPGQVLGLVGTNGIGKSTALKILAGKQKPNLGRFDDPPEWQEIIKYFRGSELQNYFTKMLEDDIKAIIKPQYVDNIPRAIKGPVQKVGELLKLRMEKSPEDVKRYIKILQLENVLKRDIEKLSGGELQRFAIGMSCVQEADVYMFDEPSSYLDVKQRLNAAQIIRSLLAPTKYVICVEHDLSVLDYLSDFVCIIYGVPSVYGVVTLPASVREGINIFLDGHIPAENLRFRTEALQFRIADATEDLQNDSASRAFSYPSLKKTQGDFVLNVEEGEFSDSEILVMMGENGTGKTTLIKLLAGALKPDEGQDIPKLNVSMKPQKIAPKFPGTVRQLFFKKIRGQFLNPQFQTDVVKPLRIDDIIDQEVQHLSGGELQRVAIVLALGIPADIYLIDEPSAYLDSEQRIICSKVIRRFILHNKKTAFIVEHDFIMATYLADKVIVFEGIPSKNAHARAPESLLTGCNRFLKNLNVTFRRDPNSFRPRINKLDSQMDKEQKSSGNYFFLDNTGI

Turning to B1, the binding result in assay [1] was “binds”.

B2: in assay [2], the binding result is reported as “binds”.

With B3, the binding result in assay [1] is listed as “binds”.

Source of the values: PMC6878762 (Nature, 2012).
